Target: the molecule itself
Assay: native gel or EMSA; EMM assembly assay: 35S-labelled in vitro translated substrate incubated with EMM at 30°C for 15, 45 or 90 min, EMM solubilised with 1.5% DDM, BN-PAGE, radio-imaging; homotrimer at approximately 160 kDa

Protein | stoichiometry N
LamB (natural protein, UniProt P02943 1-446, looked up, 35S-methionine, LamB, the 18-stranded outer membrane protein used as a model substrate; Gunasinghe et al., 2018; Thewasano et al., 2023) for the substrate constructs; also called trimeric-LamB; source: in vitro translated in rabbit reticulocyte lysate with 35S-methionine, assembled into EMM) MMITLRKLPLAVAVAAGVMSAQAMAVDFHGYARSGIGWTGSGGEQQCFQTTGAQSKYRLGNECETYAELKLGQEVWKEGDKSFYFDTNVAYSVAQQNDWEATDPAFREANVQGKNLIEWLPGSTIWAGKRFYQRHDVHMIDFYYWDISGPGAGLENIDVGFGKLSLAATRSSEAGGSSSFASNNIYDYTNETANDVFDVRLAQMEINPGGTLELGVDYGRANLRDNYRLVDGASKDGWLFTAEHTQSVLKGFNKFVVQYATDSMTSQGKGLSQGSGVAFDNEKFAYNINNNGHMLRILDHGAISMGDNWDMMYVGMYQDINWDNDNGTKWWTVGIRPMYKWTPIMSTVMEIGYDNVESQRTGDKNNQYKITLAQQWQAGDSIWSRPAIRVFATYAKWDEKWGYDYTGNADNNANFGKAVPADFNGGSFGRGDSDEWTFGAQMEIWW | 3
OmpF (natural protein, UniProt P02931 1-362, looked up, 35S-methionine, OmpF, the 16-stranded outer membrane protein used as a model substrate; Gunasinghe et al., 2018; Thewasano et al., 2023) for the substrate constructs; source: in vitro translated in rabbit reticulocyte lysate with 35S-methionine, assembled into EMM) MMKRNILAVIVPALLVAGTANAAEIYNKDGNKVDLYGKAVGLHYFSKGNGENSYGGNGDMTYARLGFKGETQINSDLTGYGQWEYNFQGNNSEGADAQTGNKTRLAFAGLKYADVGSFDYGRNYGVVYDALGYTDMLPEFGGDTAYSDDFFVGRVGGVATYRNSNFFGLVDGLNFAVQYLGKNERDTARRSNGDGVGGSISYEYEGFGIVGAYGAADRTNLQEAQPLGNGKKAEQWATGLKYDANNIYLAANYGETRNATPITNKFTNTSGFANKTQDVLLVAQYQFDFGLRPSIAYTKSKAKDVEGIGDVDLVNYFEVGATYYFNKNMSTYVDYIINQIDSDNKLGVGSDDTVAVGIVYQF | 3

— doi:10.1101/2024.10.31.621230 (bioRxiv, 2024)
